# T1: fluorescently quenched α-gliadin hexapeptide analogue QXL520-PQPQLP-K(5-FAM)-NH2
# T1 chain: PQPQLP
# Biological target: T1, fluorescently quenched α-gliadin …
row,Protein,Fold Change in Activity of PQ Hydrolysis Relative to Wild Type Kumamolysin-As [fold]
1,"Kumamolysin-As S262K, D293N, N291D, G319S, D358G, D368H (protein) MSDMEKPWKEGEEARAVLQGHARAQAPQAVDKGPVAGDERMAVTVVLRRQRAGELAAHVERQAAIAPHAREHLKREAFAASHGASLDDFAELRRFADAHGLALDRANVAAGTAVLSGPVDAINRAFGVELRHFDHPDGSYRSYLGEVTVPASIAPMIEAVLGLDTRPVARPHFRMQRRAEGGFEARSQAAAPTAYTPLDVAQAYQFPEGLDGQGQCIAIIELGGGYDEASLAQYFASLGVPAPQVVSVSVDGASNQPTGDPKGPDGEVELDIEVAGALAPGAKFAVYFAPDTNAGFLDAITTAIHDPTLKPSVVSISWSGPEDSWTSAAIAAMNRAFLDAAALGVTVLAAAGDSGSTGGEQDGLYHVHFPAASPYVLACGGTRLVASGGRIAQETVWNDGPDGGATGGGVSRIFPLPAWQEHANVPPSANPGASSGRGVPDLAGNADPATGYEVVIDGEATVIGGTSAVAPLFAALVARINQKLGKAVGYLNPTLYQLPADVFHDITEGNNDIANRAQIYQAGPGWDPCTGLGSPIGVRLLQALLPSASQPQPGSTENLYFQSGALEHHHHHH",62
2,"Kumamolysin-As N291D, G319S, D358G, D368H (protein) MSDMEKPWKEGEEARAVLQGHARAQAPQAVDKGPVAGDERMAVTVVLRRQRAGELAAHVERQAAIAPHAREHLKREAFAASHGASLDDFAELRRFADAHGLALDRANVAAGTAVLSGPVDAINRAFGVELRHFDHPDGSYRSYLGEVTVPASIAPMIEAVLGLDTRPVARPHFRMQRRAEGGFEARSQAAAPTAYTPLDVAQAYQFPEGLDGQGQCIAIIELGGGYDEASLAQYFASLGVPAPQVVSVSVDGASNQPTGDPSGPDGEVELDIEVAGALAPGAKFAVYFAPDTDAGFLDAITTAIHDPTLKPSVVSISWSGPEDSWTSAAIAAMNRAFLDAAALGVTVLAAAGDSGSTGGEQDGLYHVHFPAASPYVLACGGTRLVASGGRIAQETVWNDGPDGGATGGGVSRIFPLPAWQEHANVPPSANPGASSGRGVPDLAGNADPATGYEVVIDGEATVIGGTSAVAPLFAALVARINQKLGKAVGYLNPTLYQLPADVFHDITEGNNDIANRAQIYQAGPGWDPCTGLGSPIGVRLLQALLPSASQPQPGSTENLYFQSGALEHHHHHH",93
3,"Kumamolysin-As V119D, S262K, D293T, N291D, G319S, D358G, D368H (protein) MSDMEKPWKEGEEARAVLQGHARAQAPQAVDKGPVAGDERMAVTVVLRRQRAGELAAHVERQAAIAPHAREHLKREAFAASHGASLDDFAELRRFADAHGLALDRANVAAGTAVLSGPDDAINRAFGVELRHFDHPDGSYRSYLGEVTVPASIAPMIEAVLGLDTRPVARPHFRMQRRAEGGFEARSQAAAPTAYTPLDVAQAYQFPEGLDGQGQCIAIIELGGGYDEASLAQYFASLGVPAPQVVSVSVDGASNQPTGDPKGPDGEVELDIEVAGALAPGAKFAVYFAPDTTAGFLDAITTAIHDPTLKPSVVSISWSGPEDSWTSAAIAAMNRAFLDAAALGVTVLAAAGDSGSTGGEQDGLYHVHFPAASPYVLACGGTRLVASGGRIAQETVWNDGPDGGATGGGVSRIFPLPAWQEHANVPPSANPGASSGRGVPDLAGNADPATGYEVVIDGEATVIGGTSAVAPLFAALVARINQKLGKAVGYLNPTLYQLPADVFHDITEGNNDIANRAQIYQAGPGWDPCTGLGSPIGVRLLQALLPSASQPQPGSTENLYFQSGALEHHHHHH",120
4,Kumamolysin-As T357A (protein) MSDMEKPWKEGEEARAVLQGHARAQAPQAVDKGPVAGDERMAVTVVLRRQRAGELAAHVERQAAIAPHAREHLKREAFAASHGASLDDFAELRRFADAHGLALDRANVAAGTAVLSGPVDAINRAFGVELRHFDHPDGSYRSYLGEVTVPASIAPMIEAVLGLDTRPVARPHFRMQRRAEGGFEARSQAAAPTAYTPLDVAQAYQFPEGLDGQGQCIAIIELGGGYDEASLAQYFASLGVPAPQVVSVSVDGASNQPTGDPSGPDGEVELDIEVAGALAPGAKFAVYFAPNTDAGFLDAITTAIHDPTLKPSVVSISWGGPEDSWTSAAIAAMNRAFLDAAALGVTVLAAAGDSGSADGEQDGLYHVDFPAASPYVLACGGTRLVASGGRIAQETVWNDGPDGGATGGGVSRIFPLPAWQEHANVPPSANPGASSGRGVPDLAGNADPATGYEVVIDGEATVIGGTSAVAPLFAALVARINQKLGKAVGYLNPTLYQLPADVFHDITEGNNDIANRAQIYQAGPGWDPCTGLGSPIGVRLLQALLPSASQPQPGSTENLYFQSGALEHHHHHH,2

# — US10487318
